Measurements reported in patent US20160213760A1.

Molecular target: human epidermal growth factor 2 (HER2)/neu receptor (human) (UniProt P04626)
Assay: cell-based or functional assay

IC50 of BT-474 cell proliferation (tritiated thymidine incorporation after 5-day treatment): 3.16 nM
Substance: protein conjugate H43 (ANG4043; trastuzumab conjugated to Angiopep-2) (antibody)
